# Results taken from patent US20060024313A1, “Agents that disrupt dimer formation in DPP-IV family of prolyl dipeptidases” (priority 2004, published 2006).
# Where a chain is given by its changes, count along the chain named. Names and notes keep the numbering of the source. Values joined by “and” are separate entries in the source; they are usually repeats but may differ in a detail not shown here. Equal values may be shown once. “Also recorded” adds a separate entry of the source. Marks after values point to notes of the source that are not given here.
# B1: H750A: DPP-IV mutant, H750 mutated to Ala; mixture of dimer and monomer (protein)
# chain: SRKTYTLTDYLKNTYRLKLYSLRWISDHEYLYKQENNILVFNAEYGNSSVFLENSTFDEFGHSINDYSISPDGQFILLEYNYVKQWRHSYTASYDIYDLNKRQLITEERIPNNTQWVTWSPVGHKLAYVWNNDIYVKIEPNLPSYRITWTGKEDIIYNGITDWVYEEEVFSAYSALWWSPNGTFLAYAQFNDTEVPLIEYSFYSDESLQYPKTVRVPYPKAGAVNPTVKFFVVNTDSLSSVTNATSIQITAPASMLIGDHYLCDVTWATQERISLQWLRRIQNYSVMDICDYDESSGRWNCLVARQHIEMSTTGWVGRFRPSEPHFTLDGNSFYKIISNEEGYRHICYFQIDKKDCTFITKGTWEVIGIEALTSDYLYYISNEYKGMPGGRNLYKIQLSDYTKVTCLSCELNPERCQYYSVSFSKEAKYYQLRCSGPGLPLYTLHSSVNDKGLRVLEDNSALDKMLQNVQMPSKKLDFIILNETKFWYQMILPPHFDKSKKYPLLLDVYAGPCSQKADTVFRLNWATYLASTENIIVASFDGRGSGYQGDKIMHAINRRLGTFEVEDQIEAARQFSKMGFVDNKRIAIWGWSYGGYVTSMVLGSGSGVFKCGIAVAPVSRWEYYDSVYTERYMGLPTPEDNLDHYRNSTVMSRAENFKQVEYLLIHGTADDNVHFQQSAQISKALVDVGVDFQAMWYTDEDHGIASSTAHQAIYTHMSHFIKQCFSLP
# B2: H750E: DPP-IV mutant, H750 mutated to Glu; monomer (protein)
# chain: B1 chain with A712E
# B3: H750A monomer: monomer of H750A DPP-IV separated by gel filtration (protein)
# chain: B1 chain
# B4: F713R: DPP-IV mutant, F713 substituted with Arginine (protein)
# chain: B1 chain with F675R, A712H
# B5: H750A dimer: dimer of H750A DPP-IV separated by gel filtration (protein)
# chain: B1 chain
# B6: Y248A: DPP-IV propeller loop mutant, Y248 substituted with Alanine (protein)
# chain: B1 chain with Y210A, A712H
# Tests used:
# [1] = Analytical ultracentrifugation (AUC): sedimentation velocity and equilibrium; format: physicochemical; conditions: for quaternary structure (subunit composition) by sedimentation velocity: High salt buffer (0.5 M sodium sulfate); for quaternary structure (monomer/dimer) by AUC: PBS buffer where stated; for Stokes' radius (Rs): sedimentation velocity experiments
# Method: Buffer was changed using an Amicon device and DPP-IV proteins were allowed to equilibrate for at least four hours or longer as indicated in the text at 25° C. after buffer changes. The sedimentation coefficients (S) of the enzyme were estimated by a Beckman-Coulter XL-A analytical ultracentrifuge with an An60Ti rotor as described (25). Sedimentation velocity analysis was performed at 40,000 rpm at 25° C. with standard double sector aluminum centerpieces. The UV absorption of the cells was scanned every 5 min for 4 hours. Sedimentation equilibrium was performed at 20° C. with six-channel open centerpieces and then centrifuged at 12,000 rpm for 12 hours. The data from both sedimentation velocity and sedimentation experiments were analyzed with the SedFit version 8.7 program to obtain molecular weights and sedimentation coefficients (25). Sednterp version 1.07 program is used to obtain solvent density, viscosity, Stokes' radius (Rs) and anhydrous frictional ratio (f/fo).
# DPP-IV [2] = test: Kinetic constant measurements with chromogenic substrate H-Gly-Pro-pNA; format: biochemical, human; conditions: for AUC analysis or catalytic activities in low salt buffer: low salt buffer compared to PBS buffer (data not shown)
# Method: To measure the kinetic parameters, the chromogenic substrate H-Gly-Pro-pNA was utilized to initiate the reaction, which was monitored at OD 405 nm as a function of time (21). […] The initial rate was measured with less than 10% substrate depletion for the first 10 to 300 seconds. The steady-state parameters, kcat and Km, were determined from initial velocity measurements at 0.5 to 5 Km of the substrate concentrations. Lineweaver-Burk plots were analyzed using non-linear regression of the Michaelis-Menten equation. Correlation coefficients better than 0.99 were obtained throughout.
# [3] = Size exclusion chromatography (gel filtration, Superdex 200); format: physicochemical; conditions: gel filtration experiments; PBS buffer
# Method: Chemical crosslinking in intact cells was conducted as described (24). Size exclusion chromatography was conducted at 4° C. Purified proteins (0.5 ml at a concentration of 5 uM) were applied to a Superdex 200 10/30 column (10×300-310 mm) pre-equilibrated with PBS. The sample was eluted with the same buffer at 0.3 ml/min and 0.25 ml fractions were collected. The Superdex 200 10/30 column was calibrated with the Stokes Radii of ferritin (6.1 nm), catalase (5.22 nm), aldolase (4.81 nm), albumin (3.55 nm), ovalbumin (3.05 nm) and chymotrypsinogen A (2.09 nm) from Amersham-Pharmacia.
# DPP-IV [4] = test: Dilution experiment (specific activity after two-fold dilutions); format: biochemical, human; conditions: 200 nM to 1.6 nM enzyme, 16 hours at 25° C., 10 uM H-Gly-Pro-pNA
# Method: Enzyme concentrations ranging from 200 nM to 1.6 nM were used in the dilution experiments. The experiments were carried out with consecutive two-fold dilutions in PBS containing 0.1% BSA and 1 mM DTT (dithiothreitol). The solution after dilution was incubated at 25° C. for 16 hours to ensure attainment of dimer-monomer equilibrium. The reaction was initiated by adding the substrate H-Gly-Pro-pNA at a final concentration of 10 uM for both wild type DPP-IV and H750A proteins. The initial rate of the reaction was recorded and converted to specific activity.
# [5] = High salt buffer, substrate H-Gly-Pro-pNA
# [6] = PBS buffer, substrate H-Gly-Pro-pNA
# [7] = compared with wild type rDPP-IV
# [8] = values in text, monomeric mutants
Molecule,quaternary structure (subunit composition) by sedimentation velocity [1],quaternary structure (monomer/dimer) by AUC [1],"subunit composition of separated dimer and monomer after incubation ([1]; room temperature for up to 48 hours, after gel filtration)",Km (DPP-IV [2]; [5]) [µM],kcat (DPP-IV [2]; [5]) [s⁻¹],Km (DPP-IV [2]; [6]) [µM],kcat (DPP-IV [2]; [6]) [s⁻¹],decrease in kcat (DPP-IV [2]; [7]),AUC analysis or catalytic activities in low salt buffer (DPP-IV [2]),Stokes' radius (Rs) [3],specific activity on dilution (DPP-IV [4]),"Sedimentation coefficient (s20, w) ([1]; High salt buffer) [S]",Anhydrous frictional ratio (f/fo) ([1]; PBS buffer),"Sedimentation coefficient (s20, w) ([1]; PBS buffer)",Stokes' radius (Rs) ([1]; High salt buffer),Stokes' radius (Rs) ([1]; PBS buffer),increase in Km (DPP-IV [2]; [7]) [fold],Km (DPP-IV [2]; [8]) [µM],kcat (DPP-IV [2]; [8]) [S^−1]
B1,mixture of dimer-monomer,mixture of DPP-IV dimer and monomer,maintain their subunit compositions,125,16,77,31,about 3 fold,no differences,5.7 nm and 4.6 nm,constant,,,,,,,,
B2,monomer,consists only of monomer; also recorded: nearly exclusive monomers,,1090,2.1,956,2.6,30 fold,no differences,4.6 nm and 4.6^a nm,,3.3,1.3,5.5 S,3.7^b nm,4.0^b nm,10,,
B3,,,,,,64,1.4,60 fold,,4.6^a nm,,3.3,1.3,5.5 S,3.7^b nm,4.1^b nm,,,
B4,,monomeric DPP-IV; also recorded: monomers,,,,,,,,,,,,,,,,784,2.3
B5,,,,,,79,73,,,5.7^a nm,,5.0,1.4,8.5 S and 8.4 S,4.9^b nm,5.1^b nm,,,
B6,,resulted in monomers; also recorded: monomer,,,,,,,,,,,,,,,,7,0.01
